Results as given in patent publication US6043072A, “Nucleic acids encoding Taxus geranylgeranyl diphosphate synthase, and methods of use” (Washington State University Research Foundation, priority 1998, dated 2000).

What was measured:
[1] = Prenyltransferase assay of extracts of yeast expressing the GGPP synthase constructs, with product analysis by radio-TLC; assay type: biochemical, Taxus canadensis
Method: The standard assay for prenyltransferase activities was performed with 21 mg protein in a total volume of 100 ml of the extraction/assay buffer disclosed in Example 3. […] The reaction was quenched by the addition of 300 mil of methanol:conc. HCl (4:1, v/v), and the allylic diphosphate products were solvolyzed (50, 51) upon further incubation at 42° C. for 20 min. The resulting solvolysis products were extracted twice with 1 ml pentane, and were either analyzed by liquid scintillation counting (in toluene:ethanol (7:3, v/v) containing 0.4% Omnifluor (DuPont NEN); ^14 C counting efficiency=96.0%) or concentrated on ice under a gentle stream of Ar to […] for further analysis.
For radio-TLC analysis, samples were mixed with 10 mg each of geranylgeraniol (all trans), geranyllinalool (mixed geometric isomers), farnesol and geraniol and spotted on Whatman MKC 18F reversed phase plates that were developed with acetonitrile:acetone:water (15:4:1, v/v/v) and visualized with I2 vapor. Bands corresponding to the standards were scraped into scintillation vials for counting. For radio-GC analysis, the above pentane extract was diluted with 200 ml of an 8% ethereal solution of the internal standards before concentration on ice. Product identity was confirmed by radio-GC (Satterwhite, D. M. and Croteau, R. (1988) J. Chromatogr., 452:61-73) coincidence with the authentic standard on a 12 ft x 0.125 in. polydimethylsiloxane column (15% SE-30 on 80/100-mesh Chromasorb WHP; (Alltech, Inc., Nicholasville, Ky.), with He as carrier and temperature programming from 150° C. (1 min hold) to 240° C. (20 min hold) at 8° C./min.

[2] = tested on: ANY119, an S. cerevisiae mutant; test: Complementation assay in yeast bet2-1 mutant; assay type: cell-based; conditions: 37° C.; SGI (3 d) and N3 (5 d)
Method: The pYeDP60 constructs were transformed into the S. cerevisiae mutant ANY119 using the lithium acetate procedure (Treco, D. (1989) in Current Protocols in Molecular Biology (Ausubel, F. M., Brent, R., Kingston, R. E., Moore, D. D., Seidman, J. G., Smith, J. A. and White, T. J., Eds.), pp. 13.7.1-13.7.2, John Wiley and Sons, New York), and the transformed yeast were then plated on a synthetic medium containing glucose as the sole carbon source (but lacking uracil) and grown for 4 d at 25° C. Isolated colonies, corresponding to each construct, were then replica streaked onto SGI, N3 and SLI media and grown for 3, 5 or 7 d, respectively, at 25° C or 37° C.
SGI and SLI synthetic media contain, respectively, 20 g/liter glucose (G) or 20 g/liter galactose (L) in 1 g/liter bactocasamino acids (Difco), 6.7 g/liter yeast nitrogen base without amino acid (Difco), and 40 mg/liter DL-tryptophan.
The three pYeDP60/T. canadensis GGPP synthase constructs were introduced into and expressed in ANY119, an S. cerevisiae mutant that is defective for the β-subunit of type II geranylgeranyltransferase. […]

yeast strain (INVSc1) = test: Growth/toxicity of constructs in yeast under galactose induction; assay type: cell-based, S. cerevisiae; conditions: for growth of INVSc1 transformants on SLI medium: 30° C., 3 d, galactose (induced); for toxicity of the expressed recombinant GGPP synthase gene to host cells: inducing conditions, galactose as carbon source
Method: To test the expression of GGPP synthase on galactose as carbon source, each construct was transformed into a yeast strain (INVSc1) that metabolizes this sugar efficiently.
(§1) The toxicity of the constitutively expressed, recombinant GGPP synthase gene in yeast and in E. coli parallels the in vitro activity of the enzyme expressed in the truncation series. […] This toxicity is not observed when the corresponding transformed yeast are grown on glucose or glycerol (uninduced condition), but only when the gene is actively expressed by growth under inducing conditions with galactose as the carbon source. The overexpression of this gene to produce a functional GGPP synthase probably interferes with metabolism by depleting intracellular pools of FPP, via diversion to GGPP, and thus limiting sterol biosynthesis. […] The vector used in these E. coli transformation experiments was pYPGE15, the plasmid derived from λPG15.

E. coli = test: Expression under a strong constitutive promoter in E. coli (vector pYPGE15); assay type: cell-based
Method: as §1

Molecule | activity relative to the truncated form expressed from Tr^295 ([1]; compared on a protein basis, yeast extracts) [%] | growth at restrictive temperature (rescue of bet2-1 mutant) [2] | growth of INVSc1 transformants on SLI medium (yeast strain (INVSc1)) | toxicity of the expressed recombinant GGPP synthase gene to host cells (yeast strain (INVSc1)) | growth of E. coli expressing the clone (E. coli) | total radioactivity of solvolysis products coinciding with geranylgeraniol and geranyllinalool standards ([1]; reversed phase TLC, [4-^14 C]IPP plus FPP as substrates) [%] | prenyltransferase activity of enzyme preparation ([1]; yeast extracts, [4-^14 C]IPP and FPP)
full-length: full-length T. canadensis GGPP synthase preprotein (SEQ ID NO:2) encoded by SEQ ID NO:1 (protein) MAYTAMAAGTQSLQLRTVASYQECNSMRSCFKLTPFKSFHGVNFNVPSLGAANCEIMGHLKLGSLPYKQCSVSSKSTKTMAQLVDLAETEKAEGKDIEFDFNEYMKSKAVAVDAALDKAIPLEYPEKIHESMRYSLLAGGKRVRPALCIAACELVGGSQDLAMPTACAMEMIHTMSLIHDDLPCMDNDDFRRGKPTNHKVFGEDTAVLAGDALLSFAFEHIAVATSKTVPSDRTLRVISELGKTIGSQGLVGGQVVDITSEGDANVDLKTLEWIHIHKTAVLLECSVVSGGILGGATEDEIARIRRYARCVGLLFQVVDDILDVTKSSEELGKTAGKDLLTDKATYPKLMGLEKAKEFAAELATRAKEELSSFDQIKAAPLLGLADYIAFRQN | 12 | showed growth | scanty growth | noticeable reduction in growth | the cells will not grow |  | 
Tr^295: 5'-truncated T. canadensis GGPP synthase of SEQ ID NO:2 beginning at nucleotide 295 (F^99), lacking the transit peptide (protein) FDFNEYMKSKAVAVDAALDKAIPLEYPEKIHESMRYSLLAGGKRVRPALCIAACELVGGSQDLAMPTACAMEMIHTMSLIHDDLPCMDNDDFRRGKPTNHKVFGEDTAVLAGDALLSFAFEHIAVATSKTVPSDRTLRVISELGKTIGSQGLVGGQVVDITSEGDANVDLKTLEWIHIHKTAVLLECSVVSGGILGGATEDEIARIRRYARCVGLLFQVVDDILDVTKSSEELGKTAGKDLLTDKATYPKLMGLEKAKEFAAELATRAKEELSSFDQIKAAPLLGLADYIAFRQN |  | showed growth | did not grow at all | extremely toxic | the cells will not grow | 97 | highly active
